Reference: patent publication US20080300206

Columns and labels:
[1] = target: alpha synuclein familial mutant E46K
[2] = target: alpha synuclein familial mutant A53T
[3] = target: recombinant wild-type human alpha-synuclein
[4] = target: alpha synuclein familial mutant A30P

Sequence of beta synuclein, Q16143 (Q16143 whole entry): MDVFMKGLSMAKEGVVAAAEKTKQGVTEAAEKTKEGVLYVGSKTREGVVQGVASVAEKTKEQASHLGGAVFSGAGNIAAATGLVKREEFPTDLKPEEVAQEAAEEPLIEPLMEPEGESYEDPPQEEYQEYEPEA

Protein | PLK2 activity in vitro, autoradiography [1] | PLK2 activity in vitro, autoradiography [2] | PLK2 activity in vitro, autoradiography (beta synuclein, Q16143) | Fold Change in Percent Synuclein Phosphorylation, HEK-293 overexpression [3] [fold] | PLK2 activity in vitro, autoradiography [3] | Proportion of total synuclein that is phoshorylated at ser-129, HEK-293 overexpression, ELISA [3] [%] | S129 phosphorylation, immunoblot (11A5), kinase:AS 1:200 molar [3] | S129 phosphorylation, immunoblot (11A5), rank of signal [3] | extent of S129 phosphorylation by mass spectrometry after co-expression in bacteria [3] | in vitro biochemical assay, phosphorylation of synuclein [3] | in vitro kinase reaction, phosphorylation of alpha-synuclein at serine 129 [3] | phospho ser-129 level in vitro, normalised for molarity [3] | PLK2 activity in vitro, autoradiography [4] | in vitro kinase reaction, phosphorylation of alpha-synuclein [3]
Polo like kinase 2 (PLK2) (protein) MELLRTITYQPAASTKMCEQALGKGCGADSKKKRPPQPPEESQPPQSQAQVPPAAPHHHHHHSHSGPEISRIIVDPTTGKRYCRGKVLGKGGFAKCYEMTDLTNNKVYAAKIIPHSRVAKPHQREKIDKEIELHRILHHKHVVQFYHYFEDKENIYILLEYCSRRSMAHILKARKVLTEPEVRYYLRQIVSGLKYLHEQEILHRDLKLGNFFINEAMELKVGDFGLAARLEPLEHRRRTICGTPNYLSPEVLNKQGHGCESDIWALGCVMYTMLLGRPPFETTNLKETYRCIREARYTMPSSLLAPAKHLIASMLSKNPEDRPSLDDIIRHDFFLQGFTPDRLSSSCCHTVPDFHLSSPAKNFFKKAAAALFGGKKDKARYIDTHNRVSKEDEDIYKLRHDLKKTSITQQPSKHRTDEELQPPTTTVARSGTPAVENKQQIGDAIRMIVRGTLGSCSSSSECLEDSTMGSVADTVARVLRGCLENMPEADCIPKEQLSTSFQWVTKWVDYSNKYGFGYQLSDHTVGVLFNNGAHMSLLPDKKTVHYYAELGQCSVFPATDAPEQFISQVTVLKYFSHYMEENLMDGGDLPSVTDIRRPRLYLLQWLKSDKALMMLFNDGTFQVNFYHDHTKIIICSQNEEYLLTYINEDRISTTFRLTTLLMSGCSSELKNRMEYALNMLLQRCN | the mutant alpha-synucleins were phosphorylated more at a given concentration (especially at lower concentrations) than WT | the mutant alpha-synucleins were phosphorylated more at a given concentration (especially at lower concentrations) than WT | minimally against beta synuclein | 21.2 | PLK2 was found to be more active against wild-type alpha synuclein than beta synuclein | 42.3 | Prominent signals came from GRK6, CKI, CKII and PLK2 | CKI>GRK6>PLK2>GRK4>GRK5>GRK2 | more than 95% phosphorylated | PLK2 and PLK3 having extremely robust phosphorylation of synuclein | capable of phosphorylating alpha-synuclein specifically at serine 129 and did not phosphorylate serine 87 in vitro | roughly equivalent levels of phospho ser-129 between CKI, GRK6 and PLK2 | the mutant alpha-synucleins were phosphorylated more at a given concentration (especially at lower concentrations) than WT | –
IKBKB (protein) MSWSPSLTTQTCGAWEMKERLGTGGFGNVIRWHNQETGEQIAIKQCRQELSPRNRERWCLEIQIMRRLTHPNVVAARDVPEGMQNLAPNDLPLLAMEYCQGGDLRKYLNQFENCCGLREGAILTLLSDIASALRYLHENRIIHRDLKPENIVLQQGEQRLIHKIIDLGYAKELDQGSLCTSFVGTLQYLAPELLEQQKYTVTVDYWSFGTLAFECITGFRPFLPNWQPVQWHSKVRQKSEVDIVVSEDLNGTVKFSSSLPYPNNLNSVLAERLEKWLQLMLMWHPRQRGTDPTYGPNGCFKALDDILNLKLVHILNMVTGTIHTYPVTEDESLQSLKARIQQDTGIPEEDQELLQEAGLALIPDKPATQCISDGKLNEGHTLDMDLVFLFDNSKITYETQISPRPQPESVSCILQEPKRNLAFFQLRKVWGQVWHSIQTLKEDCNRLQQGQRAAMMNLLRNNSCLSKMKNSMASMSQQLKAKLDFFKTSIQIDLEKYSEQTEFGITSDKLLLAWREMEQAVELCGRENEVKLLVERMMALQTDIVDLQRSPMGRKQGGTLDDLEEQARELYRRLREKPRDQRTEGDSQEMVRLLLQAIQSFEKKVRVIYTQLSKTVVCKQKALELLPKVEEVVSLMNEDEKTVVRLQEKRQKELWNLLKIACSKVRGPVSGSPDSMNASRLSQPGQLMSQPSTASNSLPEPAKKSEELVAEAHNLCTLLENAIQDTVREQDQSFTALDWSWLQTEEEEHSCLEQAS | – | – | – | – | – | – | – | – | – | – | – | – | – | shown to be incapable of directly phosphorylating alpha-synuclein
